# Reference: patent publication US20180319855A1, “GENETICALLY MUTATED AEQUORIN-BASED BIOSENSORS WITH EXTRA SENSITIVITY TO CALCIUM AND IMPROVED BIOLUMINESCENCE INTENSITY” (CENTRE NATIONAL DE LA RECHERCHE SCIENTIFIQUE (CNRS), priority 2015, published 2018)
# Where two headings read alike, the source gives them in different places.
# B1: Redq/QT + AD: aporedquorin mutant Q159T + A123D (SEQ ID NO:25) (protein)
# chain: MVSKGEEVIKEFMRFKVRMEGSMNGHEFEIEGEGEGRPYEGTQTAKLKVTKGGPLPFAWDILSPQFMYGSKAYVKHPADIPDYKKLSFPEGFKWERVMNFEDGGLVTVTQDSSLQDGTLIYKVKMRGTNFPPDGPVMQKKTMGWEASTERLYPRDGVLKGEIHQALKLKDGGHYLVEFKTIYMAKKPVQLPGYYYVDTKLDITSHNEDYTIVEQYERSEGRHHLFLGHGTGSTGSGSSGTASSEDNNMAVIKEFMRFKVRMEGSMNGHEFEIEGEGEGRPYEGTQTAKLKVTKGGPLPFAWDILSPQFMYGSKAYVKHPADIPDYKKLSFPEGFKWERVMNFEDGGLVTVTQDSSLQDGTLIYKVKMRGTNFPPDGPVMQKKTMGWEASTERLYPRDGVLKGEIHQALKLKDGGHYLVEFKTIYMAKKPVQLPGYYYVDTKLDITSHNEDYTIVEQYERSEGRHHLFLSGFDNPRWIGRHKHMFNFLDVNHNGKISLDEMVYKASDIVINNLGATPEQAKRHKDAVEAFFGGAGMKYGVETDWPAYIEGWKKLATDELEKYAKNEPTLIRIWGDALFDIVDKDQNGDITLDEWKAYTKAAGIIQSSEDCEETFRVCDIDESGTLDVDEMTRQHLGFWYTMDPACEKLYGGAVP
# modifications: mutant aequorin
# B2: Redq/QD + AT: aporedquorin mutant Q159D + A179T (SEQ ID NO:23) (protein)
# chain: MVSKGEEVIKEFMRFKVRMEGSMNGHEFEIEGEGEGRPYEGTQTAKLKVTKGGPLPFAWDILSPQFMYGSKAYVKHPADIPDYKKLSFPEGFKWERVMNFEDGGLVTVTQDSSLQDGTLIYKVKMRGTNFPPDGPVMQKKTMGWEASTERLYPRDGVLKGEIHQALKLKDGGHYLVEFKTIYMAKKPVQLPGYYYVDTKLDITSHNEDYTIVEQYERSEGRHHLFLGHGTGSTGSGSSGTASSEDNNMAVIKEFMRFKVRMEGSMNGHEFEIEGEGEGRPYEGTQTAKLKVTKGGPLPFAWDILSPQFMYGSKAYVKHPADIPDYKKLSFPEGFKWERVMNFEDGGLVTVTQDSSLQDGTLIYKVKMRGTNFPPDGPVMQKKTMGWEASTERLYPRDGVLKGEIHQALKLKDGGHYLVEFKTIYMAKKPVQLPGYYYVDTKLDITSHNEDYTIVEQYERSEGRHHLFLSGFDNPRWIGRHKHMFNFLDVNHNGKISLDEMVYKASDIVINNLGATPEQAKRHKDAVEAFFGGAGMKYGVETDWPAYIEGWKKLATDELEKYAKNEPTLIRIWGDALFDIVDKDQNGAITLDEWKAYTKAAGIIQSSEDCEETFRVCDIDESGDLDVDEMTRQHLGFWYTMDPTCEKLYGGAVP
# modifications: mutant aequorin
# B3: E35G: aequorin mutation from random mutagenesis reported by Tsuzuki et al. 2005 (protein)
# chain: SKLTSDFDNPRWIGRHKHMFNFLDVNHNGKISLDGMVYKASDIVINNLGATPEQAKRHKDAVEAFFGGAGMKYGVETDWPAYIEGWKKLATDELEKYAKNEPTLIRIWGDALFDIVDKDQNGAITLDEWKAYTKAAGIIQSSEDCEETFRVCDIDESGQLDVDEMTRQHLGFWYTMDPACEKLYGGAVP
# B4: V44A: aequorin mutant, valine 44 replaced by alanine (protein)
# chain: SKLTSDFDNPRWIGRHKHMFNFLDVNHNGKISLDEMVYKASDIAINNLGATPEQAKRHKDAVEAFFGGAGMKYGVETDWPAYIEGWKKLATDELEKYAKNEPTLIRIWGDALFDIVDKDQNGAITLDEWKAYTKAAGIIQSSEDCEETFRVCDIDESGQLDVDEMTRQHLGFWYTMDPACEKLYGGAVP
# B5: Aeq-wt: wild-type aequorin: apoaequorin of Aequorea victoria (SEQ ID NO:1) reconstituted with coelenterazine (protein, listed as Aequorea aequorea)
# chain: SKLTSDFDNPRWIGRHKHMFNFLDVNHNGKISLDEMVYKASDIVINNLGATPEQAKRHKDAVEAFFGGAGMKYGVETDWPAYIEGWKKLATDELEKYAKNEPTLIRIWGDALFDIVDKDQNGAITLDEWKAYTKAAGIIQSSEDCEETFRVCDIDESGQLDVDEMTRQHLGFWYTMDPACEKLYGGAVP
# modifications: reconstituted with coelenterazine; SITE (1)..(189) wild-type aequorin
# Key:
# [1] = Ca2+ sensitivity curves of reconstituted photoproteins (L/Lmax vs free Ca2+); type: biochemical; settings: for EC50: read-out: Calcium sensitivity, EC50
# Experimental: For in vitro reconstitution, the purified and concentrated samples of apoaequorin and redquorin mutant proteins were buffer-exchanged to 50 mM Tris-HCl (pH 7.5), 150 mM NaCl, 10 mM EGTA, 5 mM ß-mercaptoethanol, supplemented with 5 μM CLZ-f or CLZ-native and incubated overnight at 4° C., in the dark. The next day, samples were passed through molecular weight cut-offs (AmiconUitra MWCO, 10K and 50K, from Millipore), then resuspended in Zero-Ca^2+ buffer (30 mM MOPS, 100 mM KCl and 10 mM EGTA, pH 7.2) for calcium affinity, emission decay kinetics and spectral analysis assays. As for in cellulo reconstitution, HEK cells transiently expressing the proteins of apoaequorin and aporedquorin mutants were washed twice with Hank's Balanced Salt Solution (HBSS) and incubated in the dark, with 4 μM of the desired CLZ diluted in OptiMEM I medium (Gibco), for 2-3h at 37° C. and 5% CO2. Cells were washed once and maintained in HBSS at 37° C. for 20 min before the experiment.
# Functional Analysis of Aequorin Mutants and Fusions Ca^2+ Sensitivity Curves.
# Purified and reconstituted samples with CLZ-f or CLZ-native already buffered-exchanged to zero-calcium buffer ensured to minimize calcium contamination that could interfere with the measurements. Fifteen microliter aliquot of photoprotein samples (concentration range, 50 to 90 ng/μl) was placed in a home-made luminometer and mixed with 300 μl solution containing the desired concentration of free-Ca^2+. The solutions of EGTA-buffered with varying free-Ca^2+ prepared according to the manufacturer instruction for the kit (Molecular Probes, Invitrogen). Integration of the luminescence emission (per second) was measured for 20 seconds (background) before injecting a solution with known [free-Ca^2+] and lasted until stable or decaying signal (at final-phase) was obtained. At this point, 400 μl of a saturating calcium solution (30 mM MOPS, 100 mM CaCl2, pH 7.2) was rapidly injected (less than 30 ms) and light integration continued until all aequorin had been consumed and light intensity had gone back to background signal. Luminescence intensity (L) at different [Ca^2+] was taken as the response peak value in case of decaying signal or as the stable value in case of stable emission. Lmax, was measured by integrating all remaining luminescence signal from that moment (L value) to the end of the experiment. The EC50 values were extracted from a sigmoidal dose-response fit (variable slope) using GraphPad Prism software.
# [2] = Thermostability: relative bioluminescence activity after 30 min incubation; type: physicochemical; settings: CLZ-f
# Experimental: Thermostability of aequorin and redquorin mutant with increased affinity for calcium were compared to wt-aequorin (FIG. 5). The purified photoprotein samples were reconstituted with CLZ-f (as detailed earlier) and let to calibrate at room temperature (20-24° C.) for 20 min before taken the first measurement of total counts using saturating calcium solution (50 mM Tris-HCl, 100 mM CaCl2, pH 7.5). Samples were then incubated at two different temperatures (30 to 40° C.) for 30 min, and let equilibrate at room temperature for 15 minbefore taken the second measurement of total counts in the sample. The relative bioluminescence activity at each temperature was calculated by the ratio 2nd counts (at target T° C.)/1st counts (at initial T° C.) multiplied by 100.
# Table 6 highlights the analysis of thermostability data obtained at two temperatures for aequorin and redquorin mutants, as well as CitA and GA. The values represent the degree of change in luminescence activity compared to wt-aeq, at each temperature. All values are relative to wt-aequorin (at each temperature) and were calculated by dividing the obtained data for each mutant/variant by the data for wt-aeq (as reference). The data were taken from FIG. 5.
# [3] = test system: endogenous P2Y2 receptor; test: Assay of activation of endogenous P2Y2 receptor by ATP in CHO cells stably expressing photoproteins; type: cell-based; settings: CHO cells stably expressing the sensor; for EC50: ATP dose-response, read-out: EC50 (half-maximal effective concentration of ATP for P2Y2 activation)
# Experimental: Stably prepared CHO cells were loaded with 5 μM coelenterazine in 130 mM NaCl, 5 mM KCl, 1 mM MgCl2, 2 mM CaCl2, 5 mM NaHCO3, 20 mM N-(2-hydroxyethyl) piperazine-N′-ethanesulfonic acid (HEPES), pH 7.4 for 4 h at ambient temperature.
# To produce stable CHO cell lines, the cells transfected with GA and Redquorin variant plasmids were seeded on six-well plates and grown in the same medium with addition of Geneticin sulfate (G418) (Gibco, UK) at 1 mg/ml under the same conditions with replacement of the medium by fresh medium every 2 days. After 7-10 days of selection, CHO cells were transferred into a medium without antibiotic. To select clones with the highest bioluminescence activity, one run of limiting dilution was performed. CHO cells after G418 selection were seeded on 96-well plates (approximately 0.5 cells per well) and grown in DMEM/F12 medium supplemented with 10% fetal calf serum at 37° C., 5% CO2 for up to 80-90% confluence. Before the bioluminescence measurements, the plates with monoclones of CHO cells expressing the corresponding photoprotein were duplicated and grown for up to 90-100% confluence. Then, the medium was removed and cells were loaded with coelenterazine, and bioluminescence in each well was measured according to the procedure described earlier. As a result, the CHO cell clones with the highest bioluminescence activity were selected.
# Assay of Activation of Endogenous P2Y2 Receptor in CHO Cells
# The CHO cell lines stably expressing each photoprotein were used in assay of activation of endogenous P2Y2 receptor by ATP. The day before the measurements, the corresponding cells were seeded on 96-well plates with DMEM/F12 medium supplemented with 10% fetal calf serum and were grown at 37° C. with 5% CO2 for up to 90-100% confluence. Then, the medium was replaced by 100 μl of coelenterazine solution per well (5 μM coelenterazine in 130 mM NaCl, 5 mM KCl, 1 mM MgCl2, 2 mM CaCl2, 5 mM NaHCO3, 20 mM HEPES, pH7.4) and the cells were incubated at 23° C. for 4 h. Emission from photoproteins in the cells was measured using a Mithras LB 940 plate luminometer. The ATP was injected at a given concentration to trigger an intracellular Ca^2+ response in the cells and the measurement started immediately. The bioluminescence was integrated over a time interval of 0.05 s for 30 s.
# [4] = Tsuzuki et al. 2005; cited from earlier work
# [5] = background art; cited from earlier work
# [6] = CLZ-f, redquorin series, CitA, GA
# [7] = CLZ-native, redquorin series, CitA, GA
# [8] = CLZ-f, L/Lmax compared to Aeq-wt
Molecule,"EC50 [1, 6] [nM]","Relative intensity at pCa 6.5 ([1]; CLZ-f, relative to Redq)","Relative intensity at pCa 7.2 ([1]; CLZ-f, relative to Redq)","EC50 [1, 7] [nM]","Relative intensity at pCa 6.5 ([1]; CLZ-native, relative to Redq)","Relative intensity at pCa 7.2 ([1]; CLZ-native, relative to Redq)","Thermostability, luminescence activity relative to wt-aequorin ([2]; 30° C. for 30 min)","Thermostability, luminescence activity relative to wt-aequorin ([2]; 40° C. for 30 min)",[ATP] DL (detection limit) [3] [nM],EC50 [3] [nM],emission half-life (t½) [4] [s],"Relative intensity at pCa 6.5 [1, 8]","Relative intensity at pCa 7.2 [1, 8]","EC50 ([1]; aequorin proteins reconstituted with CLZ-f, sigmoidal curve fit, mean ± SD, n at least 3) [nM]",affinity of aequorin for calcium [5]
B1,336 ± 11,14.4,7.4,577 ± 33,14.4,10.0,0.94,1.00,1230 ± 51,3100 ± 400,–,–,–,–,–
B2,252 ± 40,58.5,48.3,515 ± 20,32.1,24.5,1.00,1.03,562 ± 20,2000,–,–,–,–,–
B3,–,–,–,–,–,–,–,–,–,–,40,–,–,–,–
B4,–,–,–,–,–,–,–,–,–,–,34,–,–,–,–
B5,–,–,–,–,–,–,1.00,1.00,–,–,0.8,1,1,659 ± 23,around 1 μM
